Measurements: patent US20210253718A1, “FRIZZLED5 PROTEIN-BINDING AGENTS” (Modmab Therapeutics Corporation, priority 2016, published 2021)

T1: FZD9 CRD (Homo sapiens, UniProt O00144)
T1 construct: G35-A161; GPI anchor signal (C); expressed in transfected cells; host or cells: CHO cells, lentiviral pLenti-puro
T1 sequence (O00144 35-161): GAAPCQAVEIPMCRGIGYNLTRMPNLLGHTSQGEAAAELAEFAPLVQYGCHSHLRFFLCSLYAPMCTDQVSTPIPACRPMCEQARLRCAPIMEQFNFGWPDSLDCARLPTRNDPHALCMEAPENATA

B1: Fab-2922: anti-FZD5 Fab with antibody variable region Fv-2922; CDR SEQ ID NOs: 35, 36, 61, 99, 137, 171 (antibody, V domains shown)
VH: EVQLVESGGGLVQPGGSLRLSCAASGFNIYSSYMHWVRQAPGKGLEWVASISPYSGYTSYADSVKGRFTISADTSKNTAYLQMNSLRAEDTAVYYCARTVRGSKKPYFSGWAMDYWGQGTLVTVSS
VL: DIQMTQSPSSLSASVGDRVTITCRASQSVSSAVAWYQQKPGKAPKLLIYSASSLYSGVPSRFSGSRSGTDFTLTISSLQPEDFATYYCQQSFVYPYLITFGQGTKVEIK
B2: Fab-2919: anti-FZD5 Fab with antibody variable region Fv-2919; CDR SEQ ID NOs: 35, 36, 58, 97, 134, 155 (antibody, V domains shown)
VH: EVQLVESGGGLVQPGGSLRLSCAASGFNISYSYIHWVRQAPGKGLEWVASIYSSSGSTSYADSVKGRFTISADTSKNTAYLQMNSLRAEDTAVYYCARGAIDYWGQGTLVTVSS
VL: DIQMTQSPSSLSASVGDRVTITCRASQSVSSAVAWYQQKPGKAPKLLIYSASSLYSGVPSRFSGSRSGTDFTLTISSLQPEDFATYYCQQWYSSGHVLITFGQGTKVEIK
B3: Fab-2924: anti-FZD5 Fab with antibody variable region Fv-2924; CDR SEQ ID NOs: 35, 36, 63, 101, 139, 153 (antibody, V domains shown)
VH: EVQLVESGGGLVQPGGSLRLSCAASGFNISYSYIHWVRQAPGKGLEWVASIYSYYSSTSYADSVKGRFTISADTSKNTAYLQMNSLRAEDTAVYYCARGALDYWGQGTLVTVSS
VL: DIQMTQSPSSLSASVGDRVTITCRASQSVSSAVAWYQQKPGKAPKLLIYSASSLYSGVPSRFSGSRSGTDFTLTISSLQPEDFATYYCQQWYSGHSLITFGQGTKVEIK
B4: Fab-2920: anti-FZD5 Fab with antibody variable region Fv-2920; CDR SEQ ID NOs: 35, 36, 59, 98, 135, 170 (antibody, V domains shown)
VH: EVQLVESGGGLVQPGGSLRLSCAASGFNISYYYIHWVRQAPGKGLEWVASIYPSSGSTSYADSVKGRFTISADTSKNTAYLQMNSLRAEDTAVYYCARGGMDYWGQGTLVTVSS
VL: DIQMTQSPSSLSASVGDRVTITCRASQSVSSAVAWYQQKPGKAPKLLIYSASSLYSGVPSRFSGSRSGTDFTLTISSLQPEDFATYYCQQWFAGALITFGQGTKVEIK
B5: Fab-2921: anti-FZD5 Fab with antibody variable region Fv-2921; CDR SEQ ID NOs: 35, 36, 60, 98, 136, 162 (antibody, V domains shown)
VH: EVQLVESGGGLVQPGGSLRLSCAASGFNISYYYIHWVRQAPGKGLEWVASIYPSSGSTSYADSVKGRFTISADTSKNTAYLQMNSLRAEDTAVYYCARGAMDYWGQGTLVTVSS
VL: DIQMTQSPSSLSASVGDRVTITCRASQSVSSAVAWYQQKPGKAPKLLIYSASSLYSGVPSRFSGSRSGTDFTLTISSLQPEDFATYYCQQWYAGSLITFGQGTKVEIK

Columns and labels:
FZD2 CRD = biological target: T2, FZD2 CRD (Homo sapiens, UniProt Q14332); assay: Immunofluorescence of anti-FZD5 Fab binding to CHO cells overexpressing Frizzled CRD; set-up: key: −: no binding; +: very weak binder; ++: weak binder; +++: good binder; ++++: very good binder
T2 construct: D35-P161; GPI anchor signal (C); expressed in transfected cells; host or cells: CHO cells, lentiviral pLenti-puro
How it was run: (§1)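 First, ten CHO cell lines were made, each lentivirally expressing a different human Frizzled CRD tagged with myc and tethered by GPI. Next, anti-FZD5 Fabs were added to each line. Finally, binding was assessed by immunofluorescence and flow cytometry.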

FZD1 CRD = biological target: T3, FZD1 CRD (Homo sapiens, UniProt Q9UP38); assay: as above; set-up: key: −: no binding; +: very weak binder; ++: weak binder; +++: good binder; ++++: very good binder
T3 construct: D112-P238; GPI anchor signal (C); expressed in transfected cells; host or cells: CHO cells, lentiviral pLenti-puro
How it was run: as §1

FZD9 CRD = biological target: T1, FZD9 CRD; assay: as above; set-up: key: −: no binding; +: very weak binder; ++: weak binder; +++: good binder; ++++: very good binder
How it was run: as §1

FZD7 CRD = biological target: T4, FZD7 CRD (Homo sapiens, UniProt O75084); assay: as above; set-up: key: −: no binding; +: very weak binder; ++: weak binder; +++: good binder; ++++: very good binder
T4 construct: D45-S169; GPI anchor signal (C); expressed in transfected cells; host or cells: CHO cells, lentiviral pLenti-puro
How it was run: as §1

PATU8988S cells [1] = assay: Effect of anti-FZD5 Fabs on proliferation of pancreatic cancer cell lines (percent growth inhibition); type: cell-based, human; conditions: Fab 10 μg/ml
Procedure: (§2) The effect of presently disclosed anti-FZD5 Fabs on proliferation of RNF43 loss-of-function mutant pancreatic cancer cell lines HPAFII, PATU8988S and ASPC-1; and on pancreatic cancer cell line RWP1, was tested at […] and 10 μg/ml.

HPAFII cells = assay: as above; type: cell-based, human; conditions: for percent growth inhibition, HPAFII 2 μg/ml: Fab 2 μg/ml; for percent growth inhibition, HPAFII 10 μg/ml: Fab 10 μg/ml
Procedure: as §2

ASPC-1 cells = assay: as above; type: cell-based, human; conditions: Fab 10 μg/ml
Procedure: as §2

RWP1 cells = assay: as above; type: cell-based, human; conditions: Fab 10 μg/ml
Procedure: as §2

PATU8988S cells [2] = assay: as above; type: cell-based, human; conditions: Fab 2 μg/ml
[3] = test system: CHO cells not expressing Frizzled CRD; assay: Flow cytometry of anti-FZD5 Fab binding to CHO cells not expressing Frizzled CRD (background)
Source text: The binding of anti-FZD5 Fabs to cell surface-expressed Frizzled protein was further determined for each member of the Frizzled family via flow cytometry and immunofluorescence analysis of a panel of 10 CHO cell lines, each ectopically over-expressing the extracellular cysteine-rich domain (CRD) of a different Frizzled protein family member.

Row | Molecule | Immunofluorescence binding, Frizzled CRD overexpressed on CHO cells: FZD2 (FZD2 CRD) | Immunofluorescence binding, Frizzled CRD overexpressed on CHO cells: FZD1 (FZD1 CRD) | Immunofluorescence binding, Frizzled CRD overexpressed on CHO cells: FZD9 (FZD9 CRD) | Immunofluorescence binding, Frizzled CRD overexpressed on CHO cells: FZD7 (FZD7 CRD) | percent growth inhibition, PATU8988s 10 μg/ml (PATU8988S cells [1]) [%] | percent growth inhibition, HPAFII 2 μg/ml (HPAFII cells) [%] | percent growth inhibition, HPAFII 10 μg/ml (HPAFII cells) [%] | percent growth inhibition, ASPC-1 10 μg/ml (ASPC-1 cells) [%] | percent growth inhibition, RWP1 10 μg/ml (RWP1 cells) [%] | percent growth inhibition, PATU8988s 2 μg/ml (PATU8988S cells [2]) [%] | Median fluorescence, Frizzled CRD overexpressed on CHO cells: None [3]
1 | B1 | − | − | − | − | −24.14 | 8.28 | 8.14 | 27.72 | 7.59 | 9.16 | 3.89
2 | B2 | − | − | − | − | −11.49 | 16.25 | 36.80 | 35.99 | 22.54 | −7.74 | 3.08
3 | B3 | − | − | − | − | −21.08 | −10.43 | −5.35 | 16.29 | 48.95 | −16.11 | 4.1
4 | B4 | − | − | − | − | −5.60 | 29.48 | 32.93 | 40.69 | −3.09 | 6.20 | 3.37
5 | B5 | − | − | − | − | −16.29 | 30.70 | 44.23 | 47.95 | −0.10 | −1.56 | 3.22
